System: MS2 coat protein
Test: apparent KD of MS2 coat protein; designed switch direction (-1 OFF switch, 1 ON switch): -1; higher = weaker reporter binding
Outline: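 SNAP-549-labelled MS2 coat protein was titrated, doubling from 0.7 or 1.5 nM to 3 µM, over designed RNA switches transcribed on Illumina chips by stalled E. coli RNA polymerase. Runs were done without input, with 200 uM small-molecule ligand, or with an oligonucleotide input. Apparent KD is the per-design median over clusters of curve-fitted normalised fluorescence.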

[1] = Eterna round: R95, input ligand: FMN 200 uM
[2] = Eterna round: R95, input ligand: microRNA oligo, concentration not stated
[3] = Eterna round: R95, input ligand: none
[4] = input ligand: microRNA oligo, concentration not stated

With “AUUACUAACACGAAAGUGUUAGUACAAUAAGCUUGUGAAACAUGAGGAUCACCCAUGUCCUCAUAAGCUCGUCUUAA [salish99_TOv2_r3_010] (puzzle: Sensor v3, turn-off variant 2)” as the sequence, how does the “apparent KD of MS2 coat protein” value [1] read?
Its value is 14 nM.

What about the “apparent KD of MS2 coat protein” value [2] of the same sequence?
Its value is 217 nM.

And the “apparent KD of MS2 coat protein” value [3]?
Its value is 11.9 nM.

Which “apparent KD of MS2 coat protein” value (input ligand: FMN 200 uM) does the source give for “AUGUGCACGCUGCGGUCCUACAUGAGGAUCACCCAUGUGGUCUGGUGGCGUGGGUCACCGGACUUGGCUCGUCUUGU [salish99_S_TOV1_R5_056] (Eterna round: R97, puzzle: Sensor, turn-off variant 1)” here?
The value was 33.7 nM.

And the “apparent KD of MS2 coat protein” value (input ligand: none)?
Its value is 40.1 nM.

What does the source list for “AAGUUGAAAGUCAGGAUAUCCAGACAAAAGUCAACGGAGAAGGGACUUGAGGAUCACCCAAGUGACCCUAAAUG [Usraleribe] (Eterna round: R97, puzzle: Brourd's mod of Exclusion 4)”?
apparent KD of MS2 coat protein (input ligand: FMN 200 uM): 23.9 nM; apparent KD of MS2 coat protein (input ligand: none): 14.8 nM

Which “apparent KD of MS2 coat protein” value (input ligand: FMN 200 uM) does the source give for “AGUGCUGGCGCGUCGGUGUUGGUGCAAUAAGCUUGUGAAACAUGAGGAUCACCCAUGUCCUCAUAAGCUCGUCUUAU [salish99_TOv2_r2_085] (Eterna round: R96, puzzle: Sensor v3, turn-off variant 2)” here?
The value was 14.9 nM.

What about the “apparent KD of MS2 coat protein” value [4] of the same sequence?
The value was 375 nM.

And the “apparent KD of MS2 coat protein” value (input ligand: none)?
The value was 17.9 nM.

With “AGCAUGUAAGGAUAUGUAACGCGGCGUUCAUUCGUCGUCCCACAGAAGGUACAUGAGGAUCACCCAUGUGCUCC [Veorla] (puzzle: Exclusion 4)” as the sequence, how does the “apparent KD of MS2 coat protein” value [2] read?
The value was 39 nM.

“AGCUCUGCAGGAUAUGCCCGGGAUAACAUGAGGAUCACCCAUGUGACUGAUUGUUAUUCUGCAGAAGGGCAUGGGA [JL-EX5-4.15 ViennaUCT mod] (Eterna round: R97, puzzle: Exclusion 5)” was tested. Which “apparent KD of MS2 coat protein” value (input ligand: FMN 200 uM) did it give?
Its value is 409 nM.

What about the “apparent KD of MS2 coat protein” value (input ligand: none) of the same sequence?
The value was 637 nM.

Which “apparent KD of MS2 coat protein” value [1] does the source give for “GAUUAUGCGAGCUUUAGGGACAUGAGGAUCACCCAUGUUCGUCUUAUUAAUCUGGGUACACUAACAUACCUAAAUCU [JMF 9] (puzzle: Sensor v3, turn-off variant 1)” here?
The value was 27.7 nM.

And the “apparent KD of MS2 coat protein” value [2]?
Its value is 47.2 nM.

And the “apparent KD of MS2 coat protein” value [3]?
The value was 31.4 nM.

What does the source list for “UGUGCGUCAGGAUAUUCUAUUUAUUACAUGAGGAUCACCCAUGUGAAUGUACAAGGGUGUGAAGAAGGGACUUGUG [LRO-Excl5-03-mod A17d by Omei] (Eterna round: R97, puzzle: Exclusion 5)”?
apparent KD of MS2 coat protein (input ligand: FMN 200 uM): 808 nM; apparent KD of MS2 coat protein (input ligand: none): 1090 nM

Which “apparent KD of MS2 coat protein” value [1] does the source give for “UUUUUCAGGCCAGAUCCUCACAUGAGGAUCACCCAUGUGCUCGUCUGUUUUCGCGCUAGCUUUUUUUUGGUAGGGCU [Level Boss var2-17] (puzzle: Sensor v3, turn-off variant 1)” here?
Its value is 329 nM.

And the “apparent KD of MS2 coat protein” value [2]?
Its value is 29.7 nM.

And the “apparent KD of MS2 coat protein” value [3]?
The value was 325 nM.

Which “apparent KD of MS2 coat protein” value [2] does the source give for “CCAGCGUAUGUGAGGAUAUGCUGGUCCUUGGAUCAGCAGAAGGCACAUGAGGAUCACCCAUGUAGAGACGUUGG [JL bmx4 3.43] (puzzle: Brourd's mod of Exclusion 4)” here?
Its value is 21.6 nM.

Which results are given for “UCUGGUCGAGGAUAUACAUGAGGAUCACCCAUGUGAUUAGCAGUCCUCGGACUGCAAUGUAGAAGGCGACCAGA [E3/2-A3] (Eterna round: R97, puzzle: Exclusion 3)”?
apparent KD of MS2 coat protein (input ligand: FMN 200 uM): 894 nM; apparent KD of MS2 coat protein (input ligand: none): 393 nM

How did the “apparent KD of MS2 coat protein” value [4] turn out when “UAUAUAUAGUAAGGAUAUGUAAUUAUUUUAUUAACAGAAGGUACUGACAUGAGGAUCACCCAUGUUUUAGUGUGGGCAUGUAGA [JMF's solution 47] (Eterna round: R96, puzzle: Exclusion NG 1)” was run?
The value was 72.6 nM.

For “AACGUGGCUUAGGAUAUUGCUACGCAAAAGUAACAAGAAGGAGGCACAUGAGGAUCACCCAUGUGAUUCGUUGA [Ineror] (puzzle: Exclusion 6)”, which “apparent KD of MS2 coat protein” value [2] is on record?
Its value is 14.8 nM.

Which results are given for “CUAUGAGCUGAGGAUAUCUGCAGGUUGGGCCUGGGAGAAGGCGGCACAUGAGGAUCACCCAUGUGACCGAAAUA [Mod2 Ex6 A.17 by Nando] (Eterna round: R97, puzzle: Exclusion 6)”?
apparent KD of MS2 coat protein (input ligand: FMN 200 uM): 16.3 nM; apparent KD of MS2 coat protein (input ligand: none): 12.7 nM

For “UUUUUAUAUGAAGGAUAUACUUAACAUGAGGAUCACCCAUGUGGUGUUGUGAGUGAGUGAGUUUAGUAGAAGGUCAAUGAUUAU [JMF's solution 59] (Eterna round: R96, puzzle: Exclusion NG 2)”, which “apparent KD of MS2 coat protein” value (input ligand: FMN 200 uM) is on record?
The value was 991 nM.

And the “apparent KD of MS2 coat protein” value [4]?
Its value is 205 nM.

And the “apparent KD of MS2 coat protein” value (input ligand: none)?
The value was 321 nM.

“UUGAACUUAGGAUAUUGGUUCAGCUACAUGAGGAUCACCCAUGUGGUACCUAGCUGAGGUCAAGAAGGGAGUGUUG [EX5 B.12] (Eterna round: R97, puzzle: Exclusion 5)” was tested. Which “apparent KD of MS2 coat protein” value (input ligand: FMN 200 uM) did it give?
The value was 25.6 nM.

What about the “apparent KD of MS2 coat protein” value (input ligand: none) of the same sequence?
Its value is 20.6 nM.

Which results are given for “AUUAUAAAUGUAGGAUAUCUGCACGAUUAGUGCAGAGAAGGACAUGAGGAUCACCCAUGUAGAUCAAUAAUAAUUAAUUUAAUU [ENG1/5-B1] (Eterna round: R96, puzzle: Exclusion NG 1)”?
apparent KD of MS2 coat protein (input ligand: FMN 200 uM): 184 nM; apparent KD of MS2 coat protein [4]: 34 nM; apparent KD of MS2 coat protein (input ligand: none): 39.8 nM

For “UUGUUAUAUGUAGGAUAUGCGUAUUAUUGUUAUGCAGAAGGACAUGAGGAUCACCCAUGUAUAUUAUUGUUAUAUAUUAUAUAU [Title] (Eterna round: R96, puzzle: Exclusion NG 1)”, which “apparent KD of MS2 coat protein” value [4] is on record?
The value was 20.3 nM.

“GCUGGACAAGGAUAUGCAAUCGUGCUUCGGCACGUAAGAUCACAUGAGGAUCACCCAUGUAGAAGGUGUCCAGC [E2/3-C2] (Eterna round: R97, puzzle: Exclusion 2)” was tested. Which “apparent KD of MS2 coat protein” value (input ligand: FMN 200 uM) did it give?
The value was 62.5 nM.

And the “apparent KD of MS2 coat protein” value (input ligand: none)?
Its value is 24 nM.

With “UCACAGUUAGGAUAUGCGAGUUUGGUGUGCAUCCUAGACAUACAUGAGGAUCACCCAUGUAGAAGGAAUAGUGG [Eternabot (L2) Solution 80] (Eterna round: R97, puzzle: Exclusion 2)” as the sequence, how does the “apparent KD of MS2 coat protein” value (input ligand: FMN 200 uM) read?
Its value is 34.5 nM.

And the “apparent KD of MS2 coat protein” value (input ligand: none)?
The value was 27.1 nM.

For “UAACAUGUCUGAGGAUAUCUGCACGUUUAGUGCAGAGAAGGCAGAACAUGAGGAUCACCCAUGUAGAUCAUUAAUUAAUUAAUU [ENG1/7-B2] (Eterna round: R96, puzzle: Exclusion NG 1)”, which “apparent KD of MS2 coat protein” value (input ligand: FMN 200 uM) is on record?
The value was 195 nM.

What about the “apparent KD of MS2 coat protein” value [4] of the same sequence?
The value was 142 nM.

And the “apparent KD of MS2 coat protein” value (input ligand: none)?
The value was 194 nM.

Which results are given for “AGUACUAACACGAAAGUGUUAGUACAAUAAGCUAGUGGAACAUGAGGAUCACCCAUGUCCUCAUUAGCUCGUCUUGG [Mat - Sensor v3 - Turn-off var 2 - D40] (puzzle: Sensor v3, turn-off variant 2)”?
apparent KD of MS2 coat protein [1]: 16.4 nM; apparent KD of MS2 coat protein [2]: 19.6 nM; apparent KD of MS2 coat protein [3]: 14.6 nM

What does the source list for “CUGAGCAGACGGAGAUCCCACAUGAGGAUCACCCAUGUCUCAAAAGCUUUUUGCUUGUCUUAUUCUCCUCUGUUCUC [Arorza] (puzzle: Sensor v3, turn-off variant 1)”?
apparent KD of MS2 coat protein [1]: 13.9 nM; apparent KD of MS2 coat protein [2]: 100 nM; apparent KD of MS2 coat protein [3]: 11.4 nM

“AAGUACCGUCACGAUAGUGAUGGUACAACAAGUAGUGAAACAUGAGGAUCACCCAUGUCCUCAGUUGCUCGUCUUAU [Sensor 3 - 86] (puzzle: Sensor v3, turn-off variant 2)” was tested. Which “apparent KD of MS2 coat protein” value [1] did it give?
Its value is 283 nM.

And the “apparent KD of MS2 coat protein” value [2]?
Its value is 269 nM.

And the “apparent KD of MS2 coat protein” value [3]?
The value was 298 nM.

For “ACCCUCCCGCAGGAUAUAAUAAAGUGGUACUUAUUAGAAGGGCGUACAUGAGGAUCACCCAUGUCGUGACGUGC [Eternabot (L1) Solution 5] (Eterna round: R97, puzzle: Exclusion 6)”, which “apparent KD of MS2 coat protein” value (input ligand: FMN 200 uM) is on record?
Its value is 25.5 nM.

And the “apparent KD of MS2 coat protein” value (input ligand: none)?
The value was 25.9 nM.

Which “apparent KD of MS2 coat protein” value [2] does the source give for “GUCCUACAUGAGGAUCACCCAUGUAAGGAUAUGCUAGCGGUCGGCUGACUGACUGCUAGCAGAAGGUACAUGAU (puzzle: Exclusion 1)” here?
The value was 15.6 nM.
